The results in this text go back to PMC5714209.

One may read the stoichiometry N as the number of molecules, sites or subunits per partner or assembly.

The target of the assay is A3B 193 CTD (human) (UniProt Q9UH17). Kind of assay: SEC. (In general: Size exclusion chromatography separates by hydrodynamic size, large species first.)

As to “A3B 193 CTD (from UniProt Q9UH17 193-382) (domain or fragment)”, the stoichiometry N stood at 2.
